T1: AP2-HC D1 (Plasmodium falciparum, UniProt Q8IKR9 1316-1374)
T1 sequence: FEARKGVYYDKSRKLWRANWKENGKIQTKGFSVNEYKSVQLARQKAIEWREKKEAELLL

B1: CACACA_negctrl_site488 (dsDNA)
DNA 1: TTTTTAATAAAATGATTGATAATTATTAAATTAAAA
DNA 2: TTTTAATTTAATAATTATCAATCATTTTATTAAAAA
B2: CACACA_negctrl_site388 (dsDNA)
DNA 1: TTATTTAAAATTTTTATGCGTATATATATAGGAACA
DNA 2: TGTTCCTATATATATACGCATAAAAATTTTAAATAA
B3: CACACA_negctrl_site19 (dsDNA)
DNA 1: TTAAATTCGTCATTTTAAAATAATACAAAAGTTCAA
DNA 2: TTGAACTTTTGTATTATTTTAAAATGACGAATTTAA
B4: CACACA_negctrl_site1530 (dsDNA)
DNA 1: TATTTTGAAATGGAAAGGATATAGAACTTAAACAAA
DNA 2: TTTGTTTAAGTTCTATATCCTTTCCATTTCAAAATA
B5: CACACA_negctrl_site662 (dsDNA)
DNA 1: TTGTATTATATTGTATTATGTTTAAATGAAAAAAAA
DNA 2: TTTTTTTTCATTTAAACATAATACAATATAATACAA
B6: CACACA_negctrl_site1113 (dsDNA)
DNA 1: TTTTTTTTTAAAGAAAATAAAAATATGTACTTGACA
DNA 2: TGTCAAGTACATATTTTTATTTTCTTTAAAAAAAAA
B7: CACACA_negctrl_site1226 (dsDNA)
DNA 1: TGTTATTTAAATAATTCTTTTTAAAAGATGAATTAT
DNA 2: ATAATTCATCTTTTAAAAAGAATTATTTAAATAACA
B8: CACACA_negctrl_site1354 (dsDNA)
DNA 1: TCTTTTTTTTCTTTTTTTTTATTTAAATATCAAGTA
DNA 2: TACTTGATATTTAAATAAAAAAAAAGAAAAAAAAGA
B9: CACACA_negctrl_site1042 (dsDNA)
DNA 1: ATCAAAAAAAAAAAATTTTTTTTTTTGTTTGTTTCC
DNA 2: GGAAACAAACAAAAAAAAAAATTTTTTTTTTTTGAT
B10: CACACA_negctrl_site822 (dsDNA)
DNA 1: TTTTTTCAATAAATAATCGTATATTGAATAATAATA
DNA 2: TATTATTATTCAATATACGATTATTTATTGAAAAAA
B11: CACACA_negctrl_site1293 (dsDNA)
DNA 1: TCATATTCCAAAAAAAAAAAAAAAAAAAAAAAAATA
DNA 2: TATTTTTTTTTTTTTTTTTTTTTTTTTGGAATATGA
B12: CACACA_negctrl_site1298 (dsDNA)
DNA 1: ATATTATCATTTTTTTTAATGGAAAAAAAAAAAAAA
DNA 2: TTTTTTTTTTTTTTCCATTAAAAAAAATGATAATAT
B13: CACACA_negctrl_site856 (dsDNA)
DNA 1: TTTCCTGGTCAAGGGGTTACGGTTACGTCCTCTTGC
DNA 2: GCAAGAGGACGTAACCGTAACCCCTTGACCAGGAAA
B14: CACACA_negctrl_site585 (dsDNA)
DNA 1: TTTTTTTCTTGTTTTAAATAATATACTGGAAAAAAA
DNA 2: TTTTTTTCCAGTATATTATTTAAAACAAGAAAAAAA
B15: CACACA_negctrl_site1716 (dsDNA)
DNA 1: TTTATAGTTTTAAACAAAGTAATACAAATGTATATA
DNA 2: TATATACATTTGTATTACTTTGTTTAAAACTATAAA
B16: CACACA_negctrl_site718 (dsDNA)
DNA 1: TATAACATTTTTTTCAAAATAGCTTTAGAAATAAAG
DNA 2: CTTTATTTCTAAAGCTATTTTGAAAAAAATGTTATA
B17: CACACA_negctrl_site1196 (dsDNA)
DNA 1: AAAAATTGAATTTTTTTTTTTTTTTTGAGAAGGAAA
DNA 2: TTTCCTTCTCAAAAAAAAAAAAAAAATTCAATTTTT
B18: CACACA_negctrl_site18 (dsDNA)
DNA 1: TTTTTTTTTCTTCTTTTCAAATTTAAGAAATTATAA
DNA 2: TTATAATTTCTTAAATTTGAAAAGAAGAAAAAAAAA
B19: CACACA_negctrl_site643 (dsDNA)
DNA 1: TTTTAAAAAATATAATAATATAAATATGTTTTATAC
DNA 2: GTATAAAACATATTTATATTATTATATTTTTTAAAA
B20: CACACA_negctrl_site1514 (dsDNA)
DNA 1: GAATAAAAAAAAAAAAAAATTTATTTTATAATAAAA
DNA 2: TTTTATTATAAAATAAATTTTTTTTTTTTTTTATTC
B21: CACACA_negctrl_site1718 (dsDNA)
DNA 1: TTTTTGCAAAAAGAAATAATTTTATTTTAGTTCGGA
DNA 2: TCCGAACTAAAATAAAATTATTTCTTTTTGCAAAAA
B22: CACACA_negctrl_site143 (dsDNA)
DNA 1: ATAAACAGAAAAAAAAAAAAAAAAAAAAAAAAAAAA
DNA 2: TTTTTTTTTTTTTTTTTTTTTTTTTTTTCTGTTTAT
B23: CACACA_negctrl_site1364 (dsDNA)
DNA 1: ATTTTTTTTTTTTTTTTTTTTTTTTTTTTTTTTTTT
DNA 2: AAAAAAAAAAAAAAAAAAAAAAAAAAAAAAAAAAAT
B24: CACACA_negctrl_site59 (dsDNA)
DNA 1: AAAAAAAAAAAAAAAAAAAAAAAAAAAAATAAAAAA
DNA 2: TTTTTTATTTTTTTTTTTTTTTTTTTTTTTTTTTTT
B25: CACACA_negctrl_site292 (dsDNA)
DNA 1: AAAAAAAAAAAAAAAAAAAAAAAAAAAAAAAAAAAG
DNA 2: CTTTTTTTTTTTTTTTTTTTTTTTTTTTTTTTTTTT
B26: CACACA_negctrl_site1097 (dsDNA)
DNA 1: ATATTTTTAGGTGATTATTATTCGGAGAAGCGAATT
DNA 2: AATTCGCTTCTCCGAATAATAATCACCTAAAAATAT
B27: CACACA_negctrl_site191 (dsDNA)
DNA 1: TTGTTCATCTTTTTTTTTTTTTTTTTTTTTTAAATC
DNA 2: GATTTAAAAAAAAAAAAAAAAAAAAAAGATGAACAA
B28: CACACA_negctrl_site273 (dsDNA)
DNA 1: TTTTTTTTTTTTTTTTTTTTTTGTGAAACTAAGTAA
DNA 2: TTACTTAGTTTCACAAAAAAAAAAAAAAAAAAAAAA
B29: CACACA_negctrl_site383 (dsDNA)
DNA 1: GGAACCATCCAAAAAAAAAAAAAAAATAATAATAAT
DNA 2: ATTATTATTATTTTTTTTTTTTTTTTGGATGGTTCC
B30: CACACA_negctrl_site34 (dsDNA)
DNA 1: TTATGTATATTATAAATTAATACATTTAAATTAATA
DNA 2: TATTAATTTAAATGTATTAATTTATAATATACATAA
B31: CACACA_negctrl_site1253 (dsDNA)
DNA 1: TAATATTTCGTTAAGTTTTAAAGAAAAAAAAAAAAA
DNA 2: TTTTTTTTTTTTTCTTTAAAACTTAACGAAATATTA
B32: CACACA_negctrl_site1615 (dsDNA)
DNA 1: TTTTTTTGCATGAGCAATAAAAAAGGCTTGTTCAAA
DNA 2: TTTGAACAAGCCTTTTTTATTGCTCATGCAAAAAAA
B33: CACACA_negctrl_site452 (dsDNA)
DNA 1: AATATATGATAATTTTTTTTTTTTTTTTTTAAATAT
DNA 2: ATATTTAAAAAAAAAAAAAAAAAATTATCATATATT
B34: CACACA_negctrl_site819 (dsDNA)
DNA 1: TGATTATATAAAAAAAAGAAAAAAAAAAAAAAAAAA
DNA 2: TTTTTTTTTTTTTTTTTTCTTTTTTTTATATAATCA
B35: CACACA_negctrl_site959 (dsDNA)
DNA 1: ATTTTTTTTTAATGCAAAAGGTGATGATCGGTCATA
DNA 2: TATGACCGATCATCACCTTTTGCATTAAAAAAAAAT
B36: CACACA_negctrl_site1410 (dsDNA)
DNA 1: TAAAGTACAGGAGTAAATTGAAAAAAAAAAAAAAAA
DNA 2: TTTTTTTTTTTTTTTTCAATTTACTCCTGTACTTTA
B37: CACACA_negctrl_site1319 (dsDNA)
DNA 1: ATTTTTTTTTTTTTTTTTTTTTTTTATGAATGTTAT
DNA 2: ATAACATTCATAAAAAAAAAAAAAAAAAAAAAAAAT
B38: CACACA_negctrl_site1721 (dsDNA)
DNA 1: TTATATTTATATGTAATACAAAATAACAAAAAATTT
DNA 2: AAATTTTTTGTTATTTTGTATTACATATAAATATAA
B39: CACACA_negctrl_site792 (dsDNA)
DNA 1: AAAGAAAAAGAAAAAGAAAAATTAGAATATAAAATA
DNA 2: TATTTTATATTCTAATTTTTCTTTTTCTTTTTCTTT
B40: CACACA_negctrl_site980 (dsDNA)
DNA 1: ATTTTTAAGCATATCAAAAAAAAAAAAAAAATTAAT
DNA 2: ATTAATTTTTTTTTTTTTTTTGATATGCTTAAAAAT
B41: CACACA_negctrl_site1057 (dsDNA)
DNA 1: TGATTTTTTTTTTTTTTTTTTTTTTTTTTAGTTTGC
DNA 2: GCAAACTAAAAAAAAAAAAAAAAAAAAAAAAAATCA
B42: CACACA_negctrl_site1657 (dsDNA)
DNA 1: TATTACATTATTCAAAAAAATTTATATGGTTATAGG
DNA 2: CCTATAACCATATAAATTTTTTTGAATAATGTAATA
B43: CACACA_negctrl_site1570 (dsDNA)
DNA 1: TTTTTTTTTTTTTTTTTTTTTTTTTTTTTTTGGGGG
DNA 2: CCCCCAAAAAAAAAAAAAAAAAAAAAAAAAAAAAAA
B44: CACACA_negctrl_site1520 (dsDNA)
DNA 1: TCTTAAATTATGATAAAATATAATAAATAAATAAAT
DNA 2: ATTTATTTATTTATTATATTTTATCATAATTTAAGA

Each binder was assayed against T1, AP2-HC D1 (assay: gcPBM; about 25 ug protein; PBS, 1% milk, 0.2 mg/ml BSA, salmon testes DNA, 0.03% Triton X-100). Settings: tags: N-terminal GST (pGEX-4T-1), kept; label: surface-attached array probe.
In the case of B1, the binding signal is reported as 9.22 ln median PBM intensity, better of two orientations.
B2 was tested, and the binding signal was 9.3 ln median PBM intensity, better of two orientations.
B3 was tested, and the binding signal was 9.33 ln median PBM intensity, better of two orientations.
B4 was tested, and the binding signal was 9.32 ln median PBM intensity, better of two orientations.
With B5 the binding signal was 9.32 ln median PBM intensity, better of two orientations.
In the case of B6, the binding signal is reported as 9.17 ln median PBM intensity, better of two orientations.
In the case of B7, the binding signal is reported as 9.21 ln median PBM intensity, better of two orientations.
For B8, the binding signal was 9.2 ln median PBM intensity, better of two orientations.
B9 was tested, and the binding signal was 9.33 ln median PBM intensity, better of two orientations.
In the case of B10, the binding signal is reported as 9.23 ln median PBM intensity, better of two orientations.
In the case of B11, the binding signal is reported as 9.15 ln median PBM intensity, better of two orientations.
For B12, the binding signal was 9.12 ln median PBM intensity, better of two orientations.
With B13 the binding signal was 9.35 ln median PBM intensity, better of two orientations.
With B14 the binding signal was 8.87 ln median PBM intensity, better of two orientations.
With B15 the binding signal was 9.34 ln median PBM intensity, better of two orientations.
For B16, the binding signal was 9.31 ln median PBM intensity, better of two orientations.
In the case of B17, the binding signal is reported as 9.23 ln median PBM intensity, better of two orientations.
For B18, the binding signal was 9.28 ln median PBM intensity, better of two orientations.
For B19, the binding signal was 9.34 ln median PBM intensity, better of two orientations.
For B20, the binding signal was 9.25 ln median PBM intensity, better of two orientations.
In the case of B21, the binding signal is reported as 9.16 ln median PBM intensity, better of two orientations.
With B22 the binding signal was 8.89 ln median PBM intensity, better of two orientations.
In the case of B23, the binding signal is reported as 9.34 ln median PBM intensity, better of two orientations.
With B24 the binding signal was 9.2 ln median PBM intensity, better of two orientations.
B25 was tested, and the binding signal was 9.04 ln median PBM intensity, better of two orientations.
With B26 the binding signal was 9.32 ln median PBM intensity, better of two orientations.
With B27 the binding signal was 9.2 ln median PBM intensity, better of two orientations.
For B28, the binding signal was 8.92 ln median PBM intensity, better of two orientations.
B29 was tested, and the binding signal was 9.18 ln median PBM intensity, better of two orientations.
With B30 the binding signal was 9.28 ln median PBM intensity, better of two orientations.
B31 was tested, and the binding signal was 9.21 ln median PBM intensity, better of two orientations.
With B32 the binding signal was 9.03 ln median PBM intensity, better of two orientations.
For B33, the binding signal was 9.23 ln median PBM intensity, better of two orientations.
B34 was tested, and the binding signal was 9.07 ln median PBM intensity, better of two orientations.
In the case of B35, the binding signal is reported as 9.27 ln median PBM intensity, better of two orientations.
For B36, the binding signal was 9.3 ln median PBM intensity, better of two orientations.
B37 was tested, and the binding signal was 9.34 ln median PBM intensity, better of two orientations.
B38 was tested, and the binding signal was 9.33 ln median PBM intensity, better of two orientations.
B39 was tested, and the binding signal was 9.29 ln median PBM intensity, better of two orientations.
With B40 the binding signal was 9.35 ln median PBM intensity, better of two orientations.
For B41, the binding signal was 9.25 ln median PBM intensity, better of two orientations.
In the case of B42, the binding signal is reported as 9.24 ln median PBM intensity, better of two orientations.
For B43, the binding signal was 9.36 ln median PBM intensity, better of two orientations.
With B44 the binding signal was 9.33 ln median PBM intensity, better of two orientations.
